Common to all, as to experiment: cell-based or functional assay
Assay [1] concerns the target T1, rat amylin receptor (calcitonin receptor co-expressed with receptor activity modifying protein, RAMP3) (rat, UniProt P32214 25-516; Q9JJ73 23-147).
T1 sequence (looked up) 1: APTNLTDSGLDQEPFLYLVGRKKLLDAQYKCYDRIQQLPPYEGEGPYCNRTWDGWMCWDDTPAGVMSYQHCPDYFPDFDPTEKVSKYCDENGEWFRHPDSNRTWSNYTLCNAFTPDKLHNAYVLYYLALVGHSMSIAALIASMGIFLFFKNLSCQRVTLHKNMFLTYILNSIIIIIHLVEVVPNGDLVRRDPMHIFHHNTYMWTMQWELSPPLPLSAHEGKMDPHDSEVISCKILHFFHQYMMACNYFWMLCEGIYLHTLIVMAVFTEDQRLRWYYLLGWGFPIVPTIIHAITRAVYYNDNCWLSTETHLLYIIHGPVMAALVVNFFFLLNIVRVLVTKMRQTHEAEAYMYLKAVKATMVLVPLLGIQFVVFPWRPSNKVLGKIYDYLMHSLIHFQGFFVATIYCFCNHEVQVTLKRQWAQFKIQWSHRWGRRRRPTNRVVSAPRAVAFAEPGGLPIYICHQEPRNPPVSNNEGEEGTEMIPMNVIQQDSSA
T1 sequence (looked up) 2: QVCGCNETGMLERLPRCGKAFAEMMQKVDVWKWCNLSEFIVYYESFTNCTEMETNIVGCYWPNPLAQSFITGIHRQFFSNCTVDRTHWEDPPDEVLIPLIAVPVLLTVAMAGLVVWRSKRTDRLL

For another assay, the target named is T2, rat calcitonin receptor (rat, UniProt P32214 25-516).
T2 sequence (looked up): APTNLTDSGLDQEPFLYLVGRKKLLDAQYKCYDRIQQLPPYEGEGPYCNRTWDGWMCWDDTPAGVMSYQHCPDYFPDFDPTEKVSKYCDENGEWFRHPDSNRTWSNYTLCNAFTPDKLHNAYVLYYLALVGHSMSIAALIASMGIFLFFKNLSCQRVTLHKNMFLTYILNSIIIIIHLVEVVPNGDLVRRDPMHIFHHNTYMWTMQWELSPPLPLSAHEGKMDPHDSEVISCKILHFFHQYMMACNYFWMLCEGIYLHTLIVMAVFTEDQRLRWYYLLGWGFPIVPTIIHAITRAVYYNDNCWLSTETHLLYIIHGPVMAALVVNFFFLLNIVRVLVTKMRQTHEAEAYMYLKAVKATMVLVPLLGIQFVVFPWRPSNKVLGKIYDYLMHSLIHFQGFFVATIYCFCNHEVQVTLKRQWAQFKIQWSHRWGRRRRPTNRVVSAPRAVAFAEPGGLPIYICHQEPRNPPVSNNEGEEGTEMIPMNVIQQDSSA

Assay [2] addresses T3, human amylin receptor (calcitonin receptor co-expressed with receptor activity modifying protein, RAMP3) (human, UniProt P30988 25-474; O60896 24-148).
T3 sequence (looked up) 1: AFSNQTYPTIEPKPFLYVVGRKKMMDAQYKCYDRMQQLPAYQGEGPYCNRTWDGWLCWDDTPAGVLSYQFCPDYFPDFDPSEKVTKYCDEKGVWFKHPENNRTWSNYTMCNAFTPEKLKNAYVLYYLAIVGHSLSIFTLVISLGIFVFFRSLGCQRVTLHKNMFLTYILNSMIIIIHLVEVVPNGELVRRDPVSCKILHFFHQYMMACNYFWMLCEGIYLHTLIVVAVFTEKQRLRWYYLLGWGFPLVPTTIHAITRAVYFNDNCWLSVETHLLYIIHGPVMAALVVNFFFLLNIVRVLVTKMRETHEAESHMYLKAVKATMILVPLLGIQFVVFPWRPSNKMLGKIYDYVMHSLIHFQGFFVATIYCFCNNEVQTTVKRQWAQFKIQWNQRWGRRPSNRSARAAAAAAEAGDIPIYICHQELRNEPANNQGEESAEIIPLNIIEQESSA
T3 sequence (looked up) 2: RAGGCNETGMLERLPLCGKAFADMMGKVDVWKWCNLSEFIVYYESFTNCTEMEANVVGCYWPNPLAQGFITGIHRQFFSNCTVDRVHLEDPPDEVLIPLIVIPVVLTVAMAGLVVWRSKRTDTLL

In assay [3] the target is T4, human calcitonin receptor (human, UniProt P30988 25-474).
T4 sequence (looked up): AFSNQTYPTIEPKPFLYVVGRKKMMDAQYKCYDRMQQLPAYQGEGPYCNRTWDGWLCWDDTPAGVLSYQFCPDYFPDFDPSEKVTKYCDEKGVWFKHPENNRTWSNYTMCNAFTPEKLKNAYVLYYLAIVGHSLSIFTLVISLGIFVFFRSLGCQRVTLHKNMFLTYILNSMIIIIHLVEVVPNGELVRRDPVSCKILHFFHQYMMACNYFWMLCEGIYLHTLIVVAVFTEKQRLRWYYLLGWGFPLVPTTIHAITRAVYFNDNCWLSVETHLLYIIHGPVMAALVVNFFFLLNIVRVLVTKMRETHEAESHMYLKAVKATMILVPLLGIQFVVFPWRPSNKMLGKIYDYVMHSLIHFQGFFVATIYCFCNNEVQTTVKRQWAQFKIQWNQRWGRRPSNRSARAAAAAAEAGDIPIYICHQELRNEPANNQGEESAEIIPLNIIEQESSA

This is an account of results in patent US20220204580A1 (AstraZeneca / MedImmune, published 2022).

Numbered stars: 1 amine (or outer) side, 2 acyl side, 3 side chain; on linkers, the order of the positions; unused ones are H or OH. Bridge positions count the residues as written; N and C are the ends. Square brackets hold non-standard residues; d marks the D form. Side chains are listed from the residue outwards. Ends that are not written are not given here. * marks the point of attachment. C18 diacid = O=C(O)CCCCCCCCCCCCCCCCC(=O)*; γGlu = O=C(O)[C@H](CCC(=O)[*:2])N[*:1]; Aib = CC(C)(N)C(=O)O

B1: Peptide 41 (SEQ ID NO: 41) (peptide)
peptide: K([γGlu-C18 diacid])KCNTATCATQRLANFLVHSS[Aib]NFGPILPPTEVGSNTY-NH2
modifications: disulfide 3-8; N-terminus assumed
SMILES: CC[C@H](C)[C@H](NC(=O)[C@@H]1CCCN1C(=O)CNC(=O)[C@H](Cc1ccccc1)NC(=O)[C@H](CC(N)=O)NC(=O)C(C)(C)NC(=O)[C@H](CO)NC(=O)[C@H](CO)NC(=O)[C@H](Cc1c[nH]cn1)NC(=O)[C@@H](NC(=O)[C@H](CC(C)C)NC(=O)[C@H](Cc1ccccc1)NC(=O)[C@H](CC(N)=O)NC(=O)[C@H](C)NC(=O)[C@H](CC(C)C)NC(=O)[C@H](CCCNC(=N)N)NC(=O)[C@H](CCC(N)=O)NC(=O)[C@@H](NC(=O)[C@H](C)NC(=O)[C@@H]1CSSC[C@H](NC(=O)[C@H](CCCCN)NC(=O)[C@@H](N)CCCCNC(=O)CC[C@H](NC(=O)CCCCCCCCCCCCCCCCC(=O)O)C(=O)O)C(=O)N[C@@H](CC(N)=O)C(=O)N[C@@H]([C@@H](C)O)C(=O)N[C@@H](C)C(=O)N[C@@H]([C@@H](C)O)C(=O)N1)[C@@H](C)O)C(C)C)C(=O)N[C@@H](CC(C)C)C(=O)N1CCC[C@H]1C(=O)N1CCC[C@H]1C(=O)N[C@H](C(=O)N[C@@H](CCC(=O)O)C(=O)N[C@H](C(=O)NCC(=O)N[C@@H](CO)C(=O)N[C@@H](CC(N)=O)C(=O)N[C@H](C(=O)N[C@@H](Cc1ccc(O)cc1)C(N)=O)[C@@H](C)O)C(C)C)[C@@H](C)O
Turning to B1, the “EC50 (cAMP production)” value in assay [1] was 8.2 pM; with rat calcitonin receptor, 925 pM; in assay [2], 178 pM; in assay [3], 1180 pM. Also, in assay [2], the “Ratio (EC50 hCTR / EC50 hAMYR3)” value stood at 7.

B2: Peptide 35 (SEQ ID NO: 35) (peptide)
peptide: K([γGlu-C18 diacid])KCNTATCATQRLANFLVHSS[Aib]NFGPILPPTNVGSNTY-NH2
modifications: disulfide 3-8; N-terminus assumed
SMILES: CC[C@H](C)[C@H](NC(=O)[C@@H]1CCCN1C(=O)CNC(=O)[C@H](Cc1ccccc1)NC(=O)[C@H](CC(N)=O)NC(=O)C(C)(C)NC(=O)[C@H](CO)NC(=O)[C@H](CO)NC(=O)[C@H](Cc1c[nH]cn1)NC(=O)[C@@H](NC(=O)[C@H](CC(C)C)NC(=O)[C@H](Cc1ccccc1)NC(=O)[C@H](CC(N)=O)NC(=O)[C@H](C)NC(=O)[C@H](CC(C)C)NC(=O)[C@H](CCCNC(=N)N)NC(=O)[C@H](CCC(N)=O)NC(=O)[C@@H](NC(=O)[C@H](C)NC(=O)[C@@H]1CSSC[C@H](NC(=O)[C@H](CCCCN)NC(=O)[C@@H](N)CCCCNC(=O)CC[C@H](NC(=O)CCCCCCCCCCCCCCCCC(=O)O)C(=O)O)C(=O)N[C@@H](CC(N)=O)C(=O)N[C@@H]([C@@H](C)O)C(=O)N[C@@H](C)C(=O)N[C@@H]([C@@H](C)O)C(=O)N1)[C@@H](C)O)C(C)C)C(=O)N[C@@H](CC(C)C)C(=O)N1CCC[C@H]1C(=O)N1CCC[C@H]1C(=O)N[C@H](C(=O)N[C@@H](CC(N)=O)C(=O)N[C@H](C(=O)NCC(=O)N[C@@H](CO)C(=O)N[C@@H](CC(N)=O)C(=O)N[C@H](C(=O)N[C@@H](Cc1ccc(O)cc1)C(N)=O)[C@@H](C)O)C(C)C)[C@@H](C)O
As to B2, the “EC50 (cAMP production)” value was found to be 5.9 pM in assay [1], 514 pM with rat calcitonin receptor, 259 pM in assay [2] and 14200 pM in assay [3]. Further, the “Ratio (EC50 hCTR / EC50 hAMYR3)” value in assay [2] was 55.

B3: Peptide 38 (SEQ ID NO: 38) (peptide)
peptide: K([γGlu-C18 diacid])KCNTATCATQRLAEFLVHSS[Aib]NFGPILPPTNVGSNTY-NH2
modifications: disulfide 3-8; N-terminus assumed
SMILES: CC[C@H](C)[C@H](NC(=O)[C@@H]1CCCN1C(=O)CNC(=O)[C@H](Cc1ccccc1)NC(=O)[C@H](CC(N)=O)NC(=O)C(C)(C)NC(=O)[C@H](CO)NC(=O)[C@H](CO)NC(=O)[C@H](Cc1c[nH]cn1)NC(=O)[C@@H](NC(=O)[C@H](CC(C)C)NC(=O)[C@H](Cc1ccccc1)NC(=O)[C@H](CCC(=O)O)NC(=O)[C@H](C)NC(=O)[C@H](CC(C)C)NC(=O)[C@H](CCCNC(=N)N)NC(=O)[C@H](CCC(N)=O)NC(=O)[C@@H](NC(=O)[C@H](C)NC(=O)[C@@H]1CSSC[C@H](NC(=O)[C@H](CCCCN)NC(=O)[C@@H](N)CCCCNC(=O)CC[C@H](NC(=O)CCCCCCCCCCCCCCCCC(=O)O)C(=O)O)C(=O)N[C@@H](CC(N)=O)C(=O)N[C@@H]([C@@H](C)O)C(=O)N[C@@H](C)C(=O)N[C@@H]([C@@H](C)O)C(=O)N1)[C@@H](C)O)C(C)C)C(=O)N[C@@H](CC(C)C)C(=O)N1CCC[C@H]1C(=O)N1CCC[C@H]1C(=O)N[C@H](C(=O)N[C@@H](CC(N)=O)C(=O)N[C@H](C(=O)NCC(=O)N[C@@H](CO)C(=O)N[C@@H](CC(N)=O)C(=O)N[C@H](C(=O)N[C@@H](Cc1ccc(O)cc1)C(N)=O)[C@@H](C)O)C(C)C)[C@@H](C)O
Take B3: the “EC50 (cAMP production)” value in assay [1] was 5.1 pM; in the assay with rat calcitonin receptor, 20.3 pM; in assay [2], 190 pM; in assay [3] it was 1050 pM. Besides, the “Ratio (EC50 hCTR / EC50 hAMYR3)” value in assay [2] was found to be 6.

B4: Peptide 40 (SEQ ID NO: 40) (peptide)
peptide: K([γGlu-C18 diacid])KCNTATCATQRLANFLVHSS[Aib]NFGPILPPTHVGSNTY-NH2
modifications: disulfide 3-8; N-terminus assumed
SMILES: CC[C@H](C)[C@H](NC(=O)[C@@H]1CCCN1C(=O)CNC(=O)[C@H](Cc1ccccc1)NC(=O)[C@H](CC(N)=O)NC(=O)C(C)(C)NC(=O)[C@H](CO)NC(=O)[C@H](CO)NC(=O)[C@H](Cc1c[nH]cn1)NC(=O)[C@@H](NC(=O)[C@H](CC(C)C)NC(=O)[C@H](Cc1ccccc1)NC(=O)[C@H](CC(N)=O)NC(=O)[C@H](C)NC(=O)[C@H](CC(C)C)NC(=O)[C@H](CCCNC(=N)N)NC(=O)[C@H](CCC(N)=O)NC(=O)[C@@H](NC(=O)[C@H](C)NC(=O)[C@@H]1CSSC[C@H](NC(=O)[C@H](CCCCN)NC(=O)[C@@H](N)CCCCNC(=O)CC[C@H](NC(=O)CCCCCCCCCCCCCCCCC(=O)O)C(=O)O)C(=O)N[C@@H](CC(N)=O)C(=O)N[C@@H]([C@@H](C)O)C(=O)N[C@@H](C)C(=O)N[C@@H]([C@@H](C)O)C(=O)N1)[C@@H](C)O)C(C)C)C(=O)N[C@@H](CC(C)C)C(=O)N1CCC[C@H]1C(=O)N1CCC[C@H]1C(=O)N[C@H](C(=O)N[C@@H](Cc1c[nH]cn1)C(=O)N[C@H](C(=O)NCC(=O)N[C@@H](CO)C(=O)N[C@@H](CC(N)=O)C(=O)N[C@H](C(=O)N[C@@H](Cc1ccc(O)cc1)C(N)=O)[C@@H](C)O)C(C)C)[C@@H](C)O
In the case of B4, the “EC50 (cAMP production)” value turned out to be 12 pM in assay [1], 782 pM with rat calcitonin receptor, 228 pM in assay [2] and 3330 pM in assay [3]. For the same molecule, the “Ratio (EC50 hCTR / EC50 hAMYR3)” value in assay [2] amounted to 15.
